Experimental findings from US20130059772A1, “Use of Repeat Sequence Protein Polymers in Personal Care Compositions” (DANISCO US INC., priority 2003, published 2013) are described below.

The labels stand for the following.
B1: SELP47E: SELP variant, 13 subunits, lysine substituted by glutamic acid (protein)
chain: MDPVVLQRRDWENPGVTQLNRLAAHPPFASDPMGAGSGAGAGSGVGVPGVGVPGVGVPGVGVPGEGVPGVGVPGVGEPGVGVPGAGAGSGAGAGSGAGAGSGAGAGSGVGVPGVGVPGVGVPGVGVPGEGVPGVGVPGVGEPGVGVPGAGAGSGAGAGSGAGAGSGAGAGSGVGVPGVGVPGVGVPGVGVPGEGVPGVGVPGVGEPGVGVPGAGAGSGAGAGSGAGAGSGAGAGSGVGVPGVGVPGVGVPGVGVPGEGVPGVGVPGVGEPGVGVPGAGAGSGAGAGSGAGAGSGAGAGSGVGVPGVGVPGVGVPGVGVPGEGVPGVGVPGVGEPGVGVPGAGAGSGAGAGSGAGAGSGAGAGSGVGVPGVGVPGVGVPGVGVPGEGVPGVGVPGVGEPGVGVPGAGAGSGAGAGSGAGAGSGAGAGSGVGVPGVGVPGVGVPGVGVPGEGVPGVGVPGVGEPGVGVPGAGAGSGAGAGSGAGAGSGAGAGSGVGVPGVGVPGVGVPGVGVPGEGVPGVGVPGVGEPGVGVPGAGAGSGAGAGSGAGAGSGAGAGSGVGVPGVGVPGVGVPGVGVPGEGVPGVGVPGVGEPGVGVPGAGAGSGAGAGSGAGAGSGAGAGSGVGVPGVGVPGVGVPGVGVPGEGVPGVGVPGVGEPGVGVPGAGAGSGAGAGSGAGAGSGAGAGSGVGVPGVGVPGVGVPGVGVPGEGVPGVGVPGVGEPGVGVPGAGAGSGAGAGSGAGAGSGAGAGSGVGVPGVGVPGVGVPGVGVPGEGVPGVGVPGVGEPGVGVPGAGAGSGAGAGSGAGAGSGAGAGSGVGVPGVGVPGVGVPGVGVPGEGVPGVGVPGVGEPGVGVPGAGAGSGAGAGSGAGAMDPGRYQDLRSHHHHHH
modifications: SELP 47E-13
notes: SELP variant, 13 subunits, lysine substituted by glutamic acid
B2: SELP58: SELP variant, 13 subunits (SEQ ID NO:31) (protein)
chain: MDPVVLQRRDWENPGVTQLNRLAAHPPFASDPMGVGVPGVGVPGVGVPGVGVPGVGVPGVGVPGVGVPGVGVPGAGAGSGAGAGSGAGAGSGAGAGSGAGAGSGVGVPGVGVPGVGVPGVGVPGVGVPGVGVPGVGVPGVGVPGAGAGSGAGAGSGAGAGSGAGAGSGAGAGSGVGVPGVGVPGVGVPGVGVPGVGVPGVGVPGVGVPGVGVPGAGAGSGAGAGSGAGAGSGAGAGSGAGAGSGVGVPGVGVPGVGVPGVGVPGVGVPGVGVPGVGVPGVGVPGAGAGSGAGAGSGAGAGSGAGAGSGAGAGSGVGVPGVGVPGVGVPGVGVPGVGVPGVGVPGVGVPGVGVPGAGAGSGAGAGSGAGAGSGAGAGSGAGAGSGVGVPGVGVPGVGVPGVGVPGVGVPGVGVPGVGVPGVGVPGAGAGSGAGAGSGAGAGSGAGAGSGAGAGSGVGVPGVGVPGVGVPGVGVPGVGVPGVGVPGVGVPGVGVPGAGAGSGAGAGSGAGAGSGAGAGSGAGAGSGVGVPGVGVPGVGVPGVGVPGVGVPGVGVPGVGVPGVGVPGAGAGSGAGAGSGAGAGSGAGAGSGAGAGSGVGVPGVGVPGVGVPGVGVPGVGVPGVGVPGVGVPGVGVPGAGAGSGAGAGSGAGAGSGAGAGSGAGAGSGVGVPGVGVPGVGVPGVGVPGVGVPGVGVPGVGVPGVGVPGAGAGSGAGAGSGAGAGSGAGAGSGAGAGSGVGVPGVGVPGVGVPGVGVPGVGVPGVGVPGVGVPGVGVPGAGAGSGAGAGSGAGAGSGAGAGSGAGAGSGVGVPGVGVPGVGVPGVGVPGVGVPGVGVPGVGVPGVGVPGAGAGSGAGAGSGAGAGSGAGAGSGAGAGSGVGVPGVGVPGVGVPGVGVPGVGVPGVGVPGVGVPGVGVPGAGAGSGAGAGSGAGAGSGAGAGSGAGAGSMDPGRYQLSAGRYHYQLVWCQK
modifications: SELP 58
B3: SELP47E-3: SELP variant, 3 subunits, lysine substituted by glutamic acid (SEQ ID NO:28) (protein)
chain: MDPVVLQRRDWENPGVTQLNRLAAHPPFASDPMGAGAGSGAGAGSGVGVPGVGVPGVGVPGVGVPGEGVPGVGVPGVGVPGVGVPGAGAGSGAGAGSGAGAGSGAGAGSGVGVPGVGVPGVGVPGVGVPGEGVPGVGVPGVGVPGVGVPGAGAGSGAGAGSGAGAGSGAGAGSGVGVPGVGVPGVGVPGVGVPGEGVPGVGVPGVGVPGVGVPGAGAGSGAGAGSGAGAMDPGRYQDLRSHHHHHH
modifications: SELP 47E-3
B4: SELP47R-3: SELP variant, 3 subunits, lysine substituted by arginine (SEQ ID NO:26) (protein)
chain: MPPVVLQRRDWENPGVTQLNRLAAHPPFASDPMGAGAGSGAGAGSGVGVPGVGVPGVGVPGVGVPGRGVPGVGVPGVGVPGVGVPGAGAGSGAGAGSGAGAGSGAGAGSGVGVPGVGVPGVGVPGVGVPGRGVPGVGVPGVGVPGVGVPGAGAGSGAGAGSGAGAGSGAGAGSGVGVPGVGVPGVGVPGVGVPGRGVPGVGVPGVGVPGVGVPGAGAGSGAGAGSGAGAMDPGRYQDLRSHHHHHH
modifications: SELP 47R-3
B5: SELP67K: SELP variant, 13 subunits (SEQ ID NO:30) (protein)
chain: MDPVVLQRRDWENPGVTQLNRLAAHPPFASDPMGVGVPGVGVPGVGVPGVGVPGKGVPGVGVPGVGVPGVGVPGAGAGSGAGAGSGAGAGSGAGAGSGAGAGSGAGAGSGVGVPGVGVPGVGVPGVGVPGKGVPGVGVPGVGVPGVGVPGAGAGSGAGAGSGAGAGSGAGAGSGAGAGSGAGAGSGVGVPGVGVPGVGVPGVGVPGKGVPGVGVPGVGVPGVGVPGAGAGSGAGAGSGAGAGSGAGAGSGAGAGSGAGAGSGVGVPGVGVPGVGVPGVGVPGKGVPGVGVPGVGVPGVGVPGAGAGSGAGAGSGAGAGSGAGAGSGAGAGSGAGAGSGVGVPGVGVPGVGVPGVGVPGKGVPGVGVPGVGVPGVGVPGAGAGSGAGAGSGAGAGSGAGAGSGAGAGSGAGAGSGVGVPGVGVPGVGVPGVGVPGKGVPGVGVPGVGVPGVGVPGAGAGSGAGAGSGAGAGSGAGAGSGAGAGSGAGAGSGVGVPGVGVPGVGVPGVGVPGKGVPGVGVPGVGVPGVGVPGAGAGSGAGAGSGAGAGSGAGAGSGAGAGSGAGAGSGVGVPGVGVPGVGVPGVGVPGKGVPGVGVPGVGVPGVGVPGAGAGSGAGAGSGAGAGSGAGAGSGAGAGSGAGAGSGVGVPGVGVPGVGVPGVGVPGKGVPGVGVPGVGVPGVGVPGAGAGSGAGAGSGAGAGSGAGAGSGAGAGSGAGAGSGVGVPGVGVPGVGVPGVGVPGKGVPGVGVPGVGVPGVGVPGAGAGSGAGAGSGAGAGSGAGAGSGAGAGSGAGAGSGVGVPGVGVPGVGVPGVGVPGKGVPGVGVPGVGVPGVGVPGAGAGSGAGAGSGAGAGSGAGAGSGAGAGSGAGAGSGVGVPGVGVPGVGVPGVGVPGKGVPGVGVPGVGVPGVGVPGAGAGSGAGAGSGAGAGSGAGAGSGAGAGSGAGAGSGVGVPGVGVPGVGVPGVGVPGKGVPGVGVPGVGVPGVGVPGAGAGSGAGAGSGAGAGSGAGAGSGAGAGSGAGAGSMDPGRYQDLRSHHHHHH
modifications: SELP 67K
B6: SELP47K-3: SELP variant, 3 subunits, no lysine substitution (SEQ ID NO:27) (protein)
chain: MDPVVLQRRDWENPGVTQLNRLAAHPPFASDPMGAGSGAGAGSGVGVPGVGVPGVGVPGVGVPGKGVPGVGVPGVGVPGVGVPGAGAGSGAGAGSGAGAGSGAGAGSGVGVPGVGVPGVGVPGVGVPGKGVPGVGVPGVGVPGVGVPGAGAGSGAGAGSGAGAGSGAGAGSGVGVPGVGVPGVGVPGVGVPGKGVPGVGVPGVGVPGVGVPGAGAGSGAGAGSGAGAMDPGRYQDLRSHHHHHH
modifications: SELP-47K-3

The data set in a line: Isoelectric point determination (IEF gel). Format: physicochemical. The conditions noted are these: SELP variants, Table 2. The protocol: In this Example, experiments performed to determine the isoelectric point and cloud point of SELP47K (Example 1) are described. The isoelectric point of SELP47K was determined by electrophoresing 5 mg/ml SELP47K solution using Isoelectric Focusing Electrophoresis (IEF) gel and Novex electrophoresis apparatus along with protein standards markers.
As for B1, the “Isoelectric Point” value was 4.16.

Regarding B2, the “Isoelectric Point” value is 6.7.

For the molecule B3, the “Isoelectric Point” value was 5.9.

B4: the “Isoelectric Point” value worked out at 10.5.

B5: the “Isoelectric Point” value was 10.53.

For B6, the “Isoelectric Point” value is 9.52.
